Measurements taken from IntAct's records for PubMed 17170699.

B1: Protein disulfide-isomerase A3 (Homo sapiens), P30101 (parent)
chain: MRLRRLALFPGVALLLAAARLAAASDVLELTDDNFESRISDTGSAGLMLVEFFAPWCGHCKRLAPEYEAAATRLKGIVPLAKVDCTANTNTCNKYGVSGYPTLKIFRDGEEAGAYDGPRTADGIVSHLKKQAGPASVPLRTEEEFKKFISDKDASIVGFFDDSFSEAHSEFLKAASNLRDNYRFAHTNVESLVNEYDDNGEGIILFRPSHLTNKFEDKTVAYTEQKMTSGKIKKFIQENIFGICPHMTEDNKDLIQGKDLLIAYYDVDYEKNAKGSNYWRNRVMMVAKKFLDAGHKLNFAVASRKTFSHELSDFGLESTAGEIPVVAIRTAKGEKFVMQEEFSRDGKALERFLQDYFDGNLKRYLKSEPIPESNDGPVKVVVAENFDEIVNNENKDVLIEFYAPWCGHCKNLEPKYKELGEKLSKDPNIVIAKMDATANDVPSPYEVRGFPTIYFSPANKKLNPKKYEGGRELSDFISYLQREATNPPVIQEEKPKKKKKAQEDL
partner: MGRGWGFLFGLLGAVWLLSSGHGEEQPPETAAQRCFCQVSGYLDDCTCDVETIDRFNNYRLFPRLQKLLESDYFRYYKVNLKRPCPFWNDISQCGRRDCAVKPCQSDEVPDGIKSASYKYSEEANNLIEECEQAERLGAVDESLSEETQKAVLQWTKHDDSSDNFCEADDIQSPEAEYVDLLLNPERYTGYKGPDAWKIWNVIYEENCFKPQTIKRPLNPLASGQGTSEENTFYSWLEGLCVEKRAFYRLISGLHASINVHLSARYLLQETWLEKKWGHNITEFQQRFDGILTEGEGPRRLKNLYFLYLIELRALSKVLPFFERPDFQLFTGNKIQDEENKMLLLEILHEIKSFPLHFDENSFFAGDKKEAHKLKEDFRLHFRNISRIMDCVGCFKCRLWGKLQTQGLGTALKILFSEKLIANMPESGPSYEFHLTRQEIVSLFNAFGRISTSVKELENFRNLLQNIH

Variants of: B1
Conditions: with ero1a_human ERO1A

| effect of a mutation on the interaction | Variant |
| --- | --- |
| decreasing interaction | MRLRRLALFPGVALLLAAARLAAASDVLELTDDNFESRISDTGSAGLMLVEFFAPWCGHCKRLAPEYEAAATRLKGIVPLAKVDCTANTNTCNKYGVSGYPTLKIFRDGEEAGAYDGPRTADGIVSHLKKQAGPASVPLRTEEEFKKFISDKDASIVGFFDDSFSEAHSEFLKAASNLRDNYRFAHTNVESLVNEYDDNGEGIILFRPSHLTNKFEDKTVAYTEQKMTSGKIKKFIQENIFGICPHMTEDNKDLIQGKDLLIAYYDVDYEKNAKGSNYWRNRVMMVAKKFLDAGHKLNFAVASRKTFSHELSDFGLESTAGEIPVVAIRTAKGEKFVMQEEFSRDGKALERFLQDYFDGNLKRYLKSEPIPESNDGPVKVVVAENFDEIVNNENKDVLIEFYAPWCGHAKNLEPKYKELGEKLSKDPNIVIAKMDATANDVPSPYEVRGFPTIYFSPANKKLNPKKYEGGRELSDFISYLQREATNPPVIQEEKPKKKKKAQEDL [C409A] |
